In assay [1] the target is T1, murine IL12 receptor complex (IL12Rβ1 and IL12Rβ2) (mouse, UniProt Q60837 20-738; P97378 24-874). Nature of the assay: cell-based or functional assay.
Assay [2] has as its target T1, murine IL12 receptor complex (IL12Rβ1 …). The experiment in a line: cell-based or functional assay. The source holds these as a separate data set.

Like-named read-outs stand apart in the source and are kept apart here.

T1 sequence (Q60837 20-738, chain 1 of 2): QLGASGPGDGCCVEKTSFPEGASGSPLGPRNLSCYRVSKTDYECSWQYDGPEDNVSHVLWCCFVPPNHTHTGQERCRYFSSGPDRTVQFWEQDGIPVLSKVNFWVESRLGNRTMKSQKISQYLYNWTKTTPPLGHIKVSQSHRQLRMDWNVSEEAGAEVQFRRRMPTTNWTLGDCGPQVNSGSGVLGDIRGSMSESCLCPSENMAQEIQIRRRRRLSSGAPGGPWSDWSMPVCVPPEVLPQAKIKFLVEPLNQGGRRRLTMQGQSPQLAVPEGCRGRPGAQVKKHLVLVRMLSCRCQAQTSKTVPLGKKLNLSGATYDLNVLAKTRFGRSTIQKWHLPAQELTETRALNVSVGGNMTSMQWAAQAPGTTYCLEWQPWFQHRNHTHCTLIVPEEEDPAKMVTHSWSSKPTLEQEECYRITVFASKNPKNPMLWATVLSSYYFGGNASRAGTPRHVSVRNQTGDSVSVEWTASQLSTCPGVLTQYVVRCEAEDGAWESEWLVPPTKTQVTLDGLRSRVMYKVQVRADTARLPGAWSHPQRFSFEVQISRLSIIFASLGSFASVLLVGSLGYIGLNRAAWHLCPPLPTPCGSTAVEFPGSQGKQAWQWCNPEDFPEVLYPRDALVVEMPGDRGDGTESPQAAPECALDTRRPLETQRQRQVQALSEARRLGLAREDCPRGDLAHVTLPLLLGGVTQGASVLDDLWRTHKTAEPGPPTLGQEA
T1 sequence (P97378 24-874, chain 2 of 2): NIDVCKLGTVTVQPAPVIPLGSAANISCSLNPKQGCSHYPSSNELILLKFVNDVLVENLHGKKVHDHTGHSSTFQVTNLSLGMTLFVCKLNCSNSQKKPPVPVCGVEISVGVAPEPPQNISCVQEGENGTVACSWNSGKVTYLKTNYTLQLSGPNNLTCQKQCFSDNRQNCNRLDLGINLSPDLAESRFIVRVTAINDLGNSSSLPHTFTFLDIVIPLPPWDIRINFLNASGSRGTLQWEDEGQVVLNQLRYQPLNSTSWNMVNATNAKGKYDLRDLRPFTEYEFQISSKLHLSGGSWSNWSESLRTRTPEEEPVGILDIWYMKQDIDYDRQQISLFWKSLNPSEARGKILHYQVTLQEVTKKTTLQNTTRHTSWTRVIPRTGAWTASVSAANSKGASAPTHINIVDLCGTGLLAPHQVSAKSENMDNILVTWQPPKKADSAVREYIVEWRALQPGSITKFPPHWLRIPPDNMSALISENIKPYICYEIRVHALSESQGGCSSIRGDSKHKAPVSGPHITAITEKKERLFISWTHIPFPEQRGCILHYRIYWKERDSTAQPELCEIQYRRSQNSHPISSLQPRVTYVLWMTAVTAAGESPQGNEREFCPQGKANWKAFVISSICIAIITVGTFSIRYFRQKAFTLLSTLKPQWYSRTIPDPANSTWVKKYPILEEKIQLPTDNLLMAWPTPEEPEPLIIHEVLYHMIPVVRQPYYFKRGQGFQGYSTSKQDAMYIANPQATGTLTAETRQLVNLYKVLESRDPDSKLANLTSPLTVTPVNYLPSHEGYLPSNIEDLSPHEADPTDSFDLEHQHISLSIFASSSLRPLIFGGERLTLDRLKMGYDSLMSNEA

B1: Bivalent: Fc-IL12*(p40*-p35*) (Fc fusion)
chain: ESKYGPPCPPCPAPPVAGPSVFLFPPKPKDTLMISRTPEVTCVVVDVSQEDPEVQFNWYVDGVEVHNAKTKPREEQFNSTYRVVSVLTVLHQDWLNGKEYKCKVSNKGLPSSIEKTISKAKGQPREPQVYTLPPSQEEMTKNQVSLTCLVKGFYPSDIAVEWESNGQPENNYKTTPPVLDSDGSFFLYSRLTVDKSRWQEGNVFSCSVMHEALHNHYTQKSLSLSLGKGGGGSGGGGSGGGGSMWELEKDVYVVEVDWTPDAPGETVNLTCDTPEEDDITWTSDQRHGVIGSGKTLTITVKEFLDAGQYTCHKGGETLSHSHLLLHKKENGIWSTEILKNFKNKTFLKCEAPNYSGRFTCSWLVQRNMDLKFNIKSSSSSPDSRAVTCGMASLSAEKVTLDQRDYEKYSVSCQEDVTSPTAEETLPIELALEARQQNKYENYSTSFFIRDIIKPDPPKNLQMKPLKNSQVEVSWEYPDSWSTPHSYFSLKFFVRIQRKKEKMKETEEGCNQKGAFLVEKTSTEVQCKGGNVCVQAQDRYYNSSCSKWACVPCRVRSGGGGSGGGGSGGGGSRVIPVSGPARCLSQSRNLLKTTDDMVKTAREKLKHYSCTAEDIDHEDITRDQTSTLKTCLPLELHKNESSLATRETSSTTRGSCLPPQKTSLMMTLCLGSIYEDLKMYQTEFQAINAALQNHNHQQIILDKGMLVAIDELMQSLNHNGETLRQKPPVGEADPYRVKMKLCILLHAFSTRVVTINRVMGYLSSA
With B1, in assay [1], the “EC50 (M); STAT3-Luc reporter, CTLL2/STAT3-Luc cells” value (“EC50 (M) … CTLL2/STAT3-Luc cells” below) was determined as 1.8e-11 M; the “Fold induction at 6.25 nM; STAT3-Luc reporter, CTLL2/STAT3-Luc cells” value was 5.96 fold; the “Max fold induction; STAT3-Luc reporter, CTLL2/STAT3-Luc cells” value (from here on “Max fold induction … CTLL2/STAT3-Luc cells”) was determined as 7.83 fold.

B2: IL12(mutein 13)-Fc (Fc fusion)
chain: NGIWSTEILKNFKNKTFLKCEAPNYSGRFTCSWLVQRNMDLKFNIKSSSSSPDSRAVTCGMASLSAEKVTLDQRDYEKYSVSCQEDVTCPTAEETLPIELALEARQQNKYENYSTSFFIRDIIKPDPPKNLQMKPLKNSQVEVSWEYPDSWSTPHSYFSLKFFVRIQRKKEKMKETEEGCNQKGAFLVEKTSTEVQCKGGNVCVQAQDRYYNSSCSKWACVPCRVRSGGGGSGGGGSGGGGSRVIPVSGPARCLSQSRNLLKTTDDMVKTAREKLKHYSCTAEDIDHEDITRDQTSTLKTCLPLELHKNESCLATRETSSTTRGSCLPPQKTSLMMTLCLGSIYEDLKMYQTEFQAINAALQNHNHQQIILDKGMLVAIDELMQSLNHNGETLRQKPPVGEADPYRVKMKLCILLHAFSTRVVTINRVMGYLSSAGGGGSGGGGSGGGGSESKYGPPCPPCPAPPVAGPSVFLFPPKPKDTLMISRTPEVTCVVVDVSQEDPEVQFNWYVDGVEVHNAKTKPREEQFNSTYRVVSVLTVLHQDWLNGKEYKCKVSNKGLPSSIEKTISKAKGQPREPQVYTLPPSQEEMTKNQVSLTCLVKGFYPSDIAVEWESNGQPENNYKTTPPVLDSDGSFFLYSRLTVDKSRWQEGNVFSCSVMHEALHNHYTQKSLSLSLGK
Regarding B2, in assay [2], the “Fold induction at 20 nM; STAT3-Luc reporter, CTLL2/STAT3-Luc cells” value stood at 1.37 fold and the “Max fold induction … CTLL2/STAT3-Luc cells” value came out at 27.5 fold.

B3: Monovalent: IL12(p35xp40)-Fc (Fc fusion)
chain 1: RVIPVSGPARCLSQSRNLLKTTDDMVKTAREKLKHYSCTAEDIDHEDITRDQTSTLKTCLPLELHKNESCLATRETSSTTRGSCLPPQKTSLMMTLCLGSIYEDLKMYQTEFQAINAALQNHNHQQIILDKGMLVAIDELMQSLNHNGETLRQKPPVGEADPYRVKMKLCILLHAFSTRVVTINRVMGYLSSAGGGGSGGGGSGGGGSESKYGPPCPPCPAPPVAGPSVFLFPPKPKDTLMISRTPEVTCVVVDVSQEDPEVQFNWYVDGVEVHNAKTKPREEQFNSTYRVVSVLTVLHQDWLNGKEYKCKVSNKGLPSSIEKTISKAKGQPREPQVYTLPPSQEEMTKNQVSLWCLVKGFYPSDIAVEWESNGQPENNYKTTPPVLDSDGSFFLYSRLTVDKSRWQEGNVFSCSVMHEALHNHYTQKSLSLSLGK
chain 2: MWELEKDVYVVEVDWTPDAPGETVNLTCDTPEEDDITWTSDQRHGVIGSGKTLTITVKEFLDAGQYTCHKGGETLSHSHLLLHKKENGIWSTEILKNFKNKTFLKCEAPNYSGRFTCSWLVQRNMDLKFNIKSSSSSPDSRAVTCGMASLSAEKVTLDQRDYEKYSVSCQEDVTCPTAEETLPIELALEARQQNKYENYSTSFFIRDIIKPDPPKNLQMKPLKNSQVEVSWEYPDSWSTPHSYFSLKFFVRIQRKKEKMKETEEGCNQKGAFLVEKTSTEVQCKGGNVCVQAQDRYYNSSCSKWACVPCRVRSGGGGSGGGGSGGGGSESKYGPPCPPCPAPPVAGPSVFLFPPKPKDTLMISRTPEVTCVVVDVSQEDPEVQFNWYVDGVEVHNAKTKPREEQFNSTYRVVSVLTVLHQDWLNGKEYKCKVSNKGLPSSIEKTISKAKGQPREPQVYTLPPSQEEMTKNQVSLSCAVKGFYPSDIAVEWESNGQPENNYKTTPPVLDSDGSFFLVSRLTVDKSRWQEGNVFSCSVMHEALHNRFTQKSLSLSPGK
Take B3: in assay [1], the “EC50 (M) … CTLL2/STAT3-Luc cells” value stood at 6.47e-11 M; the “Fold induction at 6.25 nM; STAT3-Luc reporter, CTLL2/STAT3-Luc cells” value is 9.58 fold; the “Max fold induction … CTLL2/STAT3-Luc cells” value was found to be 9.89 fold.

B4: Monovalent: IL12*(p35*xp40*)-Fc (Fc fusion)
chain 1: RVIPVSGPARCLSQSRNLLKTTDDMVKTAREKLKHYSCTAEDIDHEDITRDQTSTLKTCLPLELHKNESSLATRETSSTTRGSCLPPQKTSLMMTLCLGSIYEDLKMYQTEFQAINAALQNHNHQQIILDKGMLVAIDELMQSLNHNGETLRQKPPVGEADPYRVKMKLCILLHAFSTRVVTINRVMGYLSSAGGGGSGGGGSGGGGSESKYGPPCPPCPAPPVAGPSVFLFPPKPKDTLMISRTPEVTCVVVDVSQEDPEVQFNWYVDGVEVHNAKTKPREEQFNSTYRVVSVLTVLHQDWLNGKEYKCKVSNKGLPSSIEKTISKAKGQPREPQVYTLPPSQEEMTKNQVSLWCLVKGFYPSDIAVEWESNGQPENNYKTTPPVLDSDGSFFLYSRLTVDKSRWQEGNVFSCSVMHEALHNHYTQKSLSLSLGK
chain 2: MWELEKDVYVVEVDWTPDAPGETVNLTCDTPEEDDITWTSDQRHGVIGSGKTLTITVKEFLDAGQYTCHKGGETLSHSHLLLHKKENGIWSTEILKNFKNKTFLKCEAPNYSGRFTCSWLVQRNMDLKFNIKSSSSSPDSRAVTCGMASLSAEKVTLDQRDYEKYSVSCQEDVTSPTAEETLPIELALEARQQNKYENYSTSFFIRDIIKPDPPKNLQMKPLKNSQVEVSWEYPDSWSTPHSYFSLKFFVRIQRKKEKMKETEEGCNQKGAFLVEKTSTEVQCKGGNVCVQAQDRYYNSSCSKWACVPCRVRSGGGGSGGGGSGGGGSESKYGPPCPPCPAPPVAGPSVFLFPPKPKDTLMISRTPEVTCVVVDVSQEDPEVQFNWYVDGVEVHNAKTKPREEQFNSTYRVVSVLTVLHQDWLNGKEYKCKVSNKGLPSSIEKTISKAKGQPREPQVYTLPPSQEEMTKNQVSLSCAVKGFYPSDIAVEWESNGQPENNYKTTPPVLDSDGSFFLVSRLTVDKSRWQEGNVFSCSVMHEALHNRFTQKSLSLSPGK
Regarding B4, in assay [1], the “EC50 (M) … CTLL2/STAT3-Luc cells” value is 8.11e-11 M; the “Fold induction at 6.25 nM; STAT3-Luc reporter, CTLL2/STAT3-Luc cells” value stood at 8.93 fold; the “Max fold induction … CTLL2/STAT3-Luc cells” value is 9.62 fold.

B5: Bivalent: IL12(p40-p35)-Fc (Fc fusion)
chain: MWELEKDVYVVEVDWTPDAPGETVNLTCDTPEEDDITWTSDQRHGVIGSGKTLTITVKEFLDAGQYTCHKGGETLSHSHLLLHKKENGIWSTEILKNFKNKTFLKCEAPNYSGRFTCSWLVQRNMDLKFNIKSSSSSPDSRAVTCGMASLSAEKVTLDQRDYEKYSVSCQEDVTCPTAEETLPIELALEARQQNKYENYSTSFFIRDIIKPDPPKNLQMKPLKNSQVEVSWEYPDSWSTPHSYFSLKFFVRIQRKKEKMKETEEGCNQKGAFLVEKTSTEVQCKGGNVCVQAQDRYYNSSCSKWACVPCRVRSGGGGSGGGGSGGGGSRVIPVSGPARCLSQSRNLLKTTDDMVKTAREKLKHYSCTAEDIDHEDITRDQTSTLKTCLPLELHKNESCLATRETSSTTRGSCLPPQKTSLMMTLCLGSIYEDLKMYQTEFQAINAALQNHNHQQIILDKGMLVAIDELMQSLNHNGETLRQKPPVGEADPYRVKMKLCILLHAFSTRVVTINRVMGYLSSAGGGGSGGGGSGGGGSESKYGPPCPPCPAPPVAGPSVFLFPPKPKDTLMISRTPEVTCVVVDVSQEDPEVQFNWYVDGVEVHNAKTKPREEQFNSTYRVVSVLTVLHQDWLNGKEYKCKVSNKGLPSSIEKTISKAKGQPREPQVYTLPPSQEEMTKNQVSLTCLVKGFYPSDIAVEWESNGQPENNYKTTPPVLDSDGSFFLYSRLTVDKSRWQEGNVFSCSVMHEALHNHYTQKSLSLSLGK
Take B5: in assay [1], the “EC50 (M) … CTLL2/STAT3-Luc cells” value was found to be 1.16e-11 M; the “Fold induction at 6.25 nM; STAT3-Luc reporter, CTLL2/STAT3-Luc cells” value came to 7.52 fold; the “Max fold induction … CTLL2/STAT3-Luc cells” value stood at 15.4 fold.

B6: Bivalent: IL12*(p40*-p35*)-Fc (Fc fusion)
chain: MWELEKDVYVVEVDWTPDAPGETVNLTCDTPEEDDITWTSDQRHGVIGSGKTLTITVKEFLDAGQYTCHKGGETLSHSHLLLHKKENGIWSTEILKNFKNKTFLKCEAPNYSGRFTCSWLVQRNMDLKFNIKSSSSSPDSRAVTCGMASLSAEKVTLDQRDYEKYSVSCQEDVTSPTAEETLPIELALEARQQNKYENYSTSFFIRDIIKPDPPKNLQMKPLKNSQVEVSWEYPDSWSTPHSYFSLKFFVRIQRKKEKMKETEEGCNQKGAFLVEKTSTEVQCKGGNVCVQAQDRYYNSSCSKWACVPCRVRSGGGGSGGGGSGGGGSRVIPVSGPARCLSQSRNLLKTTDDMVKTAREKLKHYSCTAEDIDHEDITRDQTSTLKTCLPLELHKNESSLATRETSSTTRGSCLPPQKTSLMMTLCLGSIYEDLKMYQTEFQAINAALQNHNHQQIILDKGMLVAIDELMQSLNHNGETLRQKPPVGEADPYRVKMKLCILLHAFSTRVVTINRVMGYLSSAGGGGSGGGGSGGGGSESKYGPPCPPCPAPPVAGPSVFLFPPKPKDTLMISRTPEVTCVVVDVSQEDPEVQFNWYVDGVEVHNAKTKPREEQFNSTYRVVSVLTVLHQDWLNGKEYKCKVSNKGLPSSIEKTISKAKGQPREPQVYTLPPSQEEMTKNQVSLTCLVKGFYPSDIAVEWESNGQPENNYKTTPPVLDSDGSFFLYSRLTVDKSRWQEGNVFSCSVMHEALHNHYTQKSLSLSLGK
Take B6: in assay [1], the “EC50 (M) … CTLL2/STAT3-Luc cells” value was 1.72e-11 M; the “Fold induction at 6.25 nM; STAT3-Luc reporter, CTLL2/STAT3-Luc cells” value was 7.01 fold; the “Max fold induction … CTLL2/STAT3-Luc cells” value turned out to be 8.48 fold.
